Like-named read-outs stand apart in the source and are kept apart here.
What was measured:
[1] = Co-formulation study of ectodomain-based traps with incretin mimetics (monomer content by SEC / RP-HPLC, integrity, stability); format: physicochemical; settings: retatrutide formulations, 20 mM NaPO4, glycine, sucrose, histidine pH 7.5
Description: In each case, the following parameters were assessed: a) monomer content (size exclusion chromatography), b) activin A and GDF-8 neutralization (cell-based assays [CBAs]), c) activin A binding (ELISA), d) GLP-1 receptor binding (ELISA).
In each case, the following parameters were assessed: a) monomer content (size exclusion chromatography), b) activin A and GDF-8 neutralization (cell-based assays [CBAs]), and c) GLP-1 receptor activation (CBA).
Given that protein aggregation can be indicative of reduced conformational stability and decreased activity, Size-Exclusion Chromatography-High Performance Liquid Chromatography (SEC-HPLC) was used to determine the purity of each ActRIIB-ECD construct. This method measured the percentage of intact monomeric species as well as the presence of aggregates and/or degradation products.
In some instances, the method used to assess the purity of an agent was based on a reversed-phase high-performance liquid chromatography (RP-HPLC) setup with a C18 column. The mobile phases consisted of acetonitrile with 0.1% formic acid (organic phase) and water with 0.1% formic acid (aqueous phase). […] Formic acid anions form an ion pair with positively charged peptides, increasing their hydrophobicity and therefore their retention time. Detection was performed using a UV detector, at 280 nm.

[2] = target: T1, GIP receptor (GIPR) on CHO-K1 cells stably overexpressing GIPR (UniProt P48546); experiment: cell-based or functional assay
T1 sequence (looked up): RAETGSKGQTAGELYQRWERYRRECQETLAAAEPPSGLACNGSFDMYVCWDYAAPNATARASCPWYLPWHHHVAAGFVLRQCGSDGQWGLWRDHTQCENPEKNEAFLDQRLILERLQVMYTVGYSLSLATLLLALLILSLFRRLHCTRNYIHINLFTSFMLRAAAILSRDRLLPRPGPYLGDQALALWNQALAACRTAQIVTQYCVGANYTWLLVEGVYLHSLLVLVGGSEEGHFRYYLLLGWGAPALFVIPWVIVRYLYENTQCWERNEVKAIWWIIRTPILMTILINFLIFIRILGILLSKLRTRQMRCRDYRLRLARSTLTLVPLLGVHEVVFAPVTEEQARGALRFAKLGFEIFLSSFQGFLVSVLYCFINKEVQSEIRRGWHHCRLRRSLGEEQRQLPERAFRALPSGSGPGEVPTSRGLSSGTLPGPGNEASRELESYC

[3] = target: GLP-1 receptor (GLP-1R) on CHO-K1 cells stably overexpressing GLP-1R (UniProt P43220); experiment: cell-based or functional assay
[4] = target: T1, GIP receptor (GIPR) on CHO-K1 cells stably overexpressing GIPR; experiment: cell-based or functional assay; remark: listed apart in the source
[5] = target: GLP-1 receptor (GLP-1R) on CHO-K1 cells stably overexpressing GLP-1R (UniProt P43220); experiment: cell-based or functional assay; remark: listed apart in the source
DIO mice = experiment: Body composition in high fat diet mice, alone and in combination with incretin mimetics; format: in vivo; settings: for Fat mass (% change from baseline) / Lean mass (% change from baseline): as E44, NMR
Description: Experiments were performed in vivo to investigate the potential for additive or synergistic effects between exemplary ActRIIB-ECD polypeptide constructs and incretin mimetics.

Chain of GLP-1 receptor (GLP-1R) on CHO-K1 cells stably overexpressing GLP-1R (P43220 24-463 limits assumed): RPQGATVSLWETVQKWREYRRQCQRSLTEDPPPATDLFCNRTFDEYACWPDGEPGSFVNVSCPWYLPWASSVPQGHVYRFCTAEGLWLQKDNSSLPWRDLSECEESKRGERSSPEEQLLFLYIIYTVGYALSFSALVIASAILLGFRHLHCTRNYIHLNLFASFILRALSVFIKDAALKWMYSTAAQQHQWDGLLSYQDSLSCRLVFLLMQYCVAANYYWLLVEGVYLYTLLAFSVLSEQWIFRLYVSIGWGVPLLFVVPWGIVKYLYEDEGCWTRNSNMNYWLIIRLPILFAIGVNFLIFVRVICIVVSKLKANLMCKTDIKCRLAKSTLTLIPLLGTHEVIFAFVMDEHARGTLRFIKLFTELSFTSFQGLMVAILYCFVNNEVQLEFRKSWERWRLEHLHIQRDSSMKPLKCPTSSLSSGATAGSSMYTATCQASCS

CC[C@H](C)[C@H](NC(=O)[C@H](Cc1ccccc1)NC(=O)[C@H](C)NC(=O)C(C)(C)NC(=O)[C@H](CCC(N)=O)NC(=O)[C@H](C)NC(=O)[C@H](CCCCNC(=O)COCCOCCNC(=O)CC[C@H](NC(=O)CCCCCCCCCCCCCCCCCCC(=O)O)C(=O)O)NC(=O)[C@H](CCCCN)NC(=O)[C@H](CC(=O)O)NC(=O)[C@H](CC(C)C)NC(=O)[C@](C)(CC(C)C)NC(=O)[C@@H](NC(=O)[C@H](CO)NC(=O)[C@H](Cc1ccc(O)cc1)NC(=O)[C@H](CC(=O)O)NC(=O)[C@H](CO)NC(=O)[C@@H](NC(=O)[C@H](Cc1ccccc1)NC(=O)[C@@H](NC(=O)CNC(=O)[C@H](CCC(N)=O)NC(=O)C(C)(C)NC(=O)[C@@H](N)Cc1ccc(O)cc1)[C@@H](C)O)[C@@H](C)O)[C@@H](C)CC)C(=O)N[C@@H](CCC(=O)O)C(=O)N[C@@H](Cc1ccc(O)cc1)C(=O)N[C@@H](CC(C)C)C(=O)N[C@@H](CC(C)C)C(=O)N[C@@H](CCC(=O)O)C(=O)NCC(=O)NCC(=O)N1CCC[C@H]1C(=O)N[C@@H](CO)C(=O)N[C@@H](CO)C(=O)NCC(=O)N[C@@H](C)C(=O)N1CCC[C@H]1C(=O)N1CCC[C@H]1C(=O)N1CCC[C@H]1C(=O)N[C@@H](CO)C(N)=O [Retatrutide alone]
Monomer Content (%) Retatrutide ([1]; D 0): 100%
Monomer Content (%) Retatrutide ([1]; D 7, 2-8° C.): 100%
Monomer Content (%) Retatrutide ([1]; D 7, RT): 100%
Monomer Content (%) Retatrutide ([1]; D 14, 2-8° C.): 100%
Monomer Content (%) Retatrutide ([1]; D 14, RT): 100%
Monomer Content (%) Retatrutide ([1]; D 28, 2-8° C.): 100%
Monomer Content (%) Retatrutide ([1]; D 28, RT): 100%
Monomer Content (%) Retatrutide ([1]; D 56, 2-8° C.): 100%
Monomer Content (%) Retatrutide ([1]; D 56, RT): 100%

retatrutide (peptide)
CBA potency GIPR; P1372 + retatrutide; D 0 [2]: 0.94 pM
CBA potency GIPR; P1372 + retatrutide; D 7 2-8°C [2]: 0.98 pM
CBA potency GIPR; P1372 + retatrutide; D 7 RT [2]: 0.98 pM
CBA potency GIPR; P1372 + retatrutide; D 14 2-8°C [2]: 1.1 pM
CBA potency GIPR; P1372 + retatrutide; D 14 RT [2]: 0.76 pM
CBA potency GIPR; P1372 + retatrutide; D 28 2-8°C [2]: 1 pM
CBA potency GIPR; P1372 + retatrutide; D 28 RT [2]: 0.84 pM
CBA potency GIPR; P1372 + retatrutide; D 56 2-8°C [2]: 0.85 pM
CBA potency GIPR; P1372 + retatrutide; D 56 RT [2]: 0.75 pM
CBA potency GIPR; Retatrutide alone; D 0 [2]: 0.74 pM
CBA potency GIPR; Retatrutide alone; D 7 2-8°C [2]: 1 pM
CBA potency GIPR; Retatrutide alone; D 7 RT [2]: 0.87 pM
CBA potency GIPR; Retatrutide alone; D 14 2-8°C [2]: 1 pM
CBA potency GIPR; Retatrutide alone; D 14 RT [2]: 1.2 pM
CBA potency GIPR; Retatrutide alone; D 28 2-8°C [2]: 1.1 pM
CBA potency GIPR; Retatrutide alone; D 28 RT [2]: 1.1 pM
CBA potency GIPR; Retatrutide alone; D 56 2-8°C [2]: 0.84 pM
CBA potency GIPR; Retatrutide alone; D 56 RT [2]: 0.82 pM
CBA potency GLP-1R; P1372 + retatrutide; D 0 [3]: 3 pM
CBA potency GLP-1R; P1372 + retatrutide; D 7 2-8°C [3]: 2 pM
CBA potency GLP-1R; P1372 + retatrutide; D 7 RT [3]: 1.8 pM
CBA potency GLP-1R; P1372 + retatrutide; D 14 2-8°C [3]: 4.1 pM
CBA potency GLP-1R; P1372 + retatrutide; D 14 RT [3]: 3.3 pM
CBA potency GLP-1R; P1372 + retatrutide; D 28 2-8°C [3]: 2.9 pM
CBA potency GLP-1R; P1372 + retatrutide; D 28 RT [3]: 2.1 pM
CBA potency GLP-1R; P1372 + retatrutide; D 56 2-8°C [3]: 2.3 pM
CBA potency GLP-1R; P1372 + retatrutide; D 56 RT [3]: 2.3 pM
CBA potency GLP-1R; Retatrutide alone; D 0 [3]: 3 pM
CBA potency GLP-1R; Retatrutide alone; D 7 2-8°C [3]: 1.8 pM
CBA potency GLP-1R; Retatrutide alone; D 7 RT [3]: 2.5 pM
CBA potency GLP-1R; Retatrutide alone; D 14 2-8°C [3]: 3.1 pM
CBA potency GLP-1R; Retatrutide alone; D 14 RT [3]: 5.6 pM
CBA potency GLP-1R; Retatrutide alone; D 28 2-8°C [3]: 2.7 pM
CBA potency GLP-1R; Retatrutide alone; D 28 RT [3]: 2.7 pM
CBA potency GLP-1R; Retatrutide alone; D 56 2-8°C [3]: 2.1 pM
CBA potency GLP-1R; Retatrutide alone; D 56 RT [3]: 1.9 pM

tirzepatide (peptide)
CBA potency GIPR; P1372 + tirzepatide; D 0 [2]: 1.5 pM
CBA potency GIPR; P1372 + tirzepatide; D 7 2-8°C [2]: 1.7 pM
CBA potency GIPR; P1372 + tirzepatide; D 7 RT [2]: 2.1 pM
CBA potency GIPR; P1372 + tirzepatide; D 14 2-8°C [2]: 1.5 pM
CBA potency GIPR; P1372 + tirzepatide; D 14 RT [2]: 1.8 pM
CBA potency GIPR; P1372 + tirzepatide; D 28 2-8°C [2]: 2 pM
CBA potency GIPR; P1372 + tirzepatide; D 28 RT [2]: 2.8 pM
CBA potency GIPR; P1372 + tirzepatide; D 56 2-8°C [2]: 1.6 pM
CBA potency GIPR; P1372 + tirzepatide; D 56 RT [2]: 1.7 pM
CBA potency GIPR; Tirzepatide alone; D 0 [2]: 1.6 pM
CBA potency GIPR; Tirzepatide alone; D 7 2-8°C [2]: 2.8 pM
CBA potency GIPR; Tirzepatide alone; D 7 RT [2]: 2.8 pM
CBA potency GIPR; Tirzepatide alone; D 14 2-8°C [2]: 2.2 pM
CBA potency GIPR; Tirzepatide alone; D 14 RT [2]: 1.7 pM
CBA potency GIPR; Tirzepatide alone; D 28 2-8°C [2]: 2.2 pM
CBA potency GIPR; Tirzepatide alone; D 28 RT [2]: 2.1 pM
CBA potency GIPR; Tirzepatide alone; D 56 2-8°C [2]: 1.5 pM
CBA potency GIPR; Tirzepatide alone; D 56 RT [2]: 1.5 pM
CBA potency GLP-1R; P1372 + tirzepatide; D 0 [3]: 9.3 pM
CBA potency GLP-1R; P1372 + tirzepatide; D 7 2-8°C [3]: 13 pM
CBA potency GLP-1R; P1372 + tirzepatide; D 7 RT [3]: 12 pM
CBA potency GLP-1R; P1372 + tirzepatide; D 14 RT [3]: 13 pM
CBA potency GLP-1R; P1372 + tirzepatide; D 28 2-8°C [3]: 14 pM
CBA potency GLP-1R; P1372 + tirzepatide; D 28 RT [3]: 13 pM
CBA potency GLP-1R; P1372 + tirzepatide; D 56 2-8°C [3]: 7.4 pM
CBA potency GLP-1R; P1372 + tirzepatide; D 56 RT [3]: 7.7 pM
CBA potency GLP-1R; Tirzepatide alone; D 0 [3]: 11 pM
CBA potency GLP-1R; Tirzepatide alone; D 7 2-8°C [3]: 11 pM
CBA potency GLP-1R; Tirzepatide alone; D 7 RT [3]: 13 pM
CBA potency GLP-1R; Tirzepatide alone; D 14 2-8°C [3]: 17 pM
CBA potency GLP-1R; Tirzepatide alone; D 14 RT [3]: 23 pM
CBA potency GLP-1R; Tirzepatide alone; D 28 2-8°C [3]: 14 pM
CBA potency GLP-1R; Tirzepatide alone; D 28 RT [3]: 12 pM
CBA potency GLP-1R; Tirzepatide alone; D 56 2-8°C [3]: 7 pM
CBA potency GLP-1R; Tirzepatide alone; D 56 RT [3]: 6.7 pM
CBA potency GIPR; P1372 + tirzepatide; D 0 [4]: 1.3 pM
CBA potency GIPR; P1372 + tirzepatide; D 7 2-8°C [4]: 1 pM
CBA potency GIPR; P1372 + tirzepatide; D 7 RT [4]: 0.99 pM
CBA potency GIPR; P1372 + tirzepatide; D 14 2-8°C [4]: 0.98 pM
CBA potency GIPR; P1372 + tirzepatide; D 14 RT [4]: 1 pM
CBA potency GIPR; P1372 + tirzepatide; D 28 2-8°C [4]: 1.3 pM
CBA potency GIPR; P1372 + tirzepatide; D 28 RT [4]: 1.5 pM
CBA potency GIPR; P1372 + tirzepatide; D 56 2-8°C [4]: 1.9 pM
CBA potency GIPR; Tirzepatide alone; D 0 [4]: 1.5 pM
CBA potency GIPR; Tirzepatide alone; D 7 2-8°C [4]: 1.1 pM
CBA potency GIPR; Tirzepatide alone; D 7 RT [4]: 1.2 pM
CBA potency GIPR; Tirzepatide alone; D 14 2-8°C [4]: 0.84 pM
CBA potency GIPR; Tirzepatide alone; D 14 RT [4]: 0.82 pM
CBA potency GIPR; Tirzepatide alone; D 28 2-8°C [4]: 1.6 pM
CBA potency GIPR; Tirzepatide alone; D 28 RT [4]: 1.4 pM
CBA potency GIPR; Tirzepatide alone; D 56 2-8°C [4]: 1.9 pM
CBA potency GIPR; Tirzepatide alone; D 56 RT [4]: 2 pM
CBA potency GLP-1R; P1372 + tirzepatide; D 0 [5]: 5.3 pM
CBA potency GLP-1R; P1372 + tirzepatide; D 7 2-8°C [5]: 3.2 pM
CBA potency GLP-1R; P1372 + tirzepatide; D 7 RT [5]: 3.3 pM
CBA potency GLP-1R; P1372 + tirzepatide; D 14 2-8°C [5]: 2.9 pM
CBA potency GLP-1R; P1372 + tirzepatide; D 14 RT [5]: 2.8 pM
CBA potency GLP-1R; P1372 + tirzepatide; D 28 2-8°C [5]: 5.5 pM
CBA potency GLP-1R; P1372 + tirzepatide; D 28 RT [5]: 5.4 pM
CBA potency GLP-1R; P1372 + tirzepatide; D 56 2-8°C [5]: 9.3 pM
CBA potency GLP-1R; P1372 + tirzepatide; D 56 RT [5]: 10 pM
CBA potency GLP-1R; Tirzepatide alone; D 0 [5]: 4.3 pM
CBA potency GLP-1R; Tirzepatide alone; D 7 2-8°C [5]: 4.6 pM
CBA potency GLP-1R; Tirzepatide alone; D 7 RT [5]: 3.7 pM
CBA potency GLP-1R; Tirzepatide alone; D 14 2-8°C [5]: 2.4 pM
CBA potency GLP-1R; Tirzepatide alone; D 14 RT [5]: 3.3 pM
CBA potency GLP-1R; Tirzepatide alone; D 28 2-8°C [5]: 5.6 pM
CBA potency GLP-1R; Tirzepatide alone; D 28 RT [5]: 5 pM
CBA potency GLP-1R; Tirzepatide alone; D 56 2-8°C [5]: 8.3 pM
CBA potency GLP-1R; Tirzepatide alone; D 56 RT [5]: 8.4 pM

tirzepatide [reference compound]
Body weight (% change from baseline) (DIO mice; DIO mice, 21 days s.c., P1307 20 mg/kg weekly, P1229 40 mg/kg twice weekly, semaglutide 40 μg/kg daily, tirzepatide 45 μg/kg daily, alone or combined): −26.8%
visceral, epididymal, pericardial, peri-renal, and retroperitoneal white adipose tissue weights (DIO mice; DIO mice, D21): significantly decreased all white adipose tissue weights
gastrocnemius and tibialis anterior weights (DIO mice; DIO mice, D21, P1229 with or without caloric restriction): no significant effect on muscle weights
Fat mass (% change from baseline) (DIO mice): −46.2%
Lean mass (% change from baseline) (DIO mice): −14.5%
Fat mass (% change from baseline) (DIO mice; listed as tirzepatide): −46.2%
Lean mass (% change from baseline) (DIO mice; listed as tirzepatide): −14.5%

Reference: patent US20260193317A1, “COMBINATION THERAPY WITH ACTRIIB RECEPTOR VARIANTS AND GLP-1 AGONISTS” (35PHARMA Inc., priority 2023, published 2026)
